Laboratory results as given in patent publication US20240392004A1 (IMMUNOWAKE, published 2024).

Legend:
[1] = target: human PD-1 on cells (HEK-PD-1 reporter cells; activated PBMC) (human, UniProt Q15116 25-288); assay: cell-based or functional assay
[2] = target: T1, human IL-2 receptor (IL-2Rα, IL-2Rβ, IL-2Rγ) (human, UniProt P01589 22-272; P14784 27-551; P31785 23-369); assay: cell-based or functional assay
T1 sequence (looked up) 1: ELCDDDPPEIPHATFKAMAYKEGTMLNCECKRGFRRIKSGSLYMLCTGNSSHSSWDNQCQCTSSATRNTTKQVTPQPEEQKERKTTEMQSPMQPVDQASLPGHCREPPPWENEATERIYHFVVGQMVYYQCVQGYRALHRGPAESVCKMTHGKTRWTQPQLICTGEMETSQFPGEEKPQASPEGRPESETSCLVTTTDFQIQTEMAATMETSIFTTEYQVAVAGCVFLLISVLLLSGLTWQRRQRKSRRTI
T1 sequence (looked up) 2: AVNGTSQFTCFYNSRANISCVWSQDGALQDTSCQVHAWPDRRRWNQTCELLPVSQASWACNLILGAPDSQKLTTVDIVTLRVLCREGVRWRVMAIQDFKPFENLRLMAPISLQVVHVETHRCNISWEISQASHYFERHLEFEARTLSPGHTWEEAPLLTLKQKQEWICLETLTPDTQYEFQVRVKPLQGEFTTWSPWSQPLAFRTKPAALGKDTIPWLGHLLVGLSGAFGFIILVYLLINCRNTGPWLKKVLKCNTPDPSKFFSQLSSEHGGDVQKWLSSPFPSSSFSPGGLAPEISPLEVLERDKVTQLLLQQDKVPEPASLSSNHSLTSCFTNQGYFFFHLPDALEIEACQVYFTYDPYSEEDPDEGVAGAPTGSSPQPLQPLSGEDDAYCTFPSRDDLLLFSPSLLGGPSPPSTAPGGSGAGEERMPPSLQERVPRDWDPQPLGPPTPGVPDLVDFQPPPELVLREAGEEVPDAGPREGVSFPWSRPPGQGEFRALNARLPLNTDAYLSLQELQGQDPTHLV
T1 sequence (looked up) 3: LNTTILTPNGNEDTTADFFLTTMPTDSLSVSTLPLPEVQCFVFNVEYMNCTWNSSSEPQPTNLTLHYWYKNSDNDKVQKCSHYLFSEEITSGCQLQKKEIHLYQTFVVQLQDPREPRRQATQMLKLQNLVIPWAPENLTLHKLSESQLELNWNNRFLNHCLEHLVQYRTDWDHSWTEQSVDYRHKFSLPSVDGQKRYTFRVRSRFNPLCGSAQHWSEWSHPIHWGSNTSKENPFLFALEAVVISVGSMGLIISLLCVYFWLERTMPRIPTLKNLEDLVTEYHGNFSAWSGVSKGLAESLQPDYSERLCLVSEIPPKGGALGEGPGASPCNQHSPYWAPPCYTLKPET

human PD-1 = target: T2, human PD-1 (human, UniProt Q15116 25-167, limits assumed); assay: PD-L1-Fc format, calibrated on PD-L1(wt)-Fc, method not stated
T2 construct: also called hPD-1
T2 sequence (Q15116 25-167 limits assumed): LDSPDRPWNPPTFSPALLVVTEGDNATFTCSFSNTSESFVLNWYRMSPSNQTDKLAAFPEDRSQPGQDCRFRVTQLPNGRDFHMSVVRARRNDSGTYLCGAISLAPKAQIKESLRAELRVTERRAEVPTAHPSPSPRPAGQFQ

mouse PD-1 = target: T3, mouse PD-1 (mouse, UniProt Q02242 25-167, limits assumed); assay: as above
T3 construct: also called mPD-1
T3 sequence (looked up): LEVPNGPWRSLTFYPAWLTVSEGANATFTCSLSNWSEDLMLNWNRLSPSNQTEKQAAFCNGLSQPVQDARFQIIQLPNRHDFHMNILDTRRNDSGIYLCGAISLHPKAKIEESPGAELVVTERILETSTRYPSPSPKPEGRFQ

human PD-1 on cells (HEK-PD-1 reporter cells; activated PBMC), sequence (Q15116 25-288): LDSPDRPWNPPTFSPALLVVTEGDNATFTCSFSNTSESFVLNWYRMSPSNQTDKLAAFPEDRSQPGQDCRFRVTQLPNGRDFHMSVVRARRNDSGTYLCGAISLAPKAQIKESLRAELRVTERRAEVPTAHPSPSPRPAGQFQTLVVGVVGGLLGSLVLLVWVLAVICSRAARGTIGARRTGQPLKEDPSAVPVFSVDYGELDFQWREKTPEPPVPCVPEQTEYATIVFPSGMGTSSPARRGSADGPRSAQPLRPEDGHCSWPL

B1: PD-L1(mut2)-Fc, I54Q/E58M/R113T/M115L/S117A/G119K (Fc fusion)
chain 1: FTVTVPKDLYVVEYGSNMTIECKFPVEKQLDLAALQVYWMMEDKNIIQFVHGEEDLKVQHSSYRQRARLLKDQLSLGNAALQITDVKLQDAGVYTCLIAYKGADYKRITVKVNAPYNKINQRILVVDPVTSEHELTCQAEGYPKAEVIWTSSDHQVLSGKTTTTNSKREEKLFNVTSTLRINTTTNEIFYCTFRRLDPEENHTAELVIPELPLAHPPNERGGGGSGGGDKTHTCPPCPAPEDEGGPSVFLFPPKPKDTLMISRTPEVTCVVVDVSHEDPEVKFNWYVDGVEVHNAKTKPREEQYNSTYRVVSVLTVLHQDWLNGKEYKCKVSNKALPAPIEKTISKAKGQPREPQVYVYPPSREEMTKNQVSLTCLVKGFYPSDIAVEWESNGQPENNYKTTPPVLDEDGSFALVSKLTVDKSRWQQGNVFSCSVMHEALHNHYTQKSLSLSPGK
chain 2: FTVTVPKDLYVVEYGSNMTIECKFPVEKQLDLAALQVYWMMEDKNIIQFVHGEEDLKVQHSSYRQRARLLKDQLSLGNAALQITDVKLQDAGVYTCLIAYKGADYKRITVKVNAPYNKINQRILVVDPVTSEHELTCQAEGYPKAEVIWTSSDHQVLSGKTTTTNSKREEKLFNVTSTLRINTTTNEIFYCTFRRLDPEENHTAELVIPELPLAHPPNERGGGGSGGGDKTHTCPPCPAPEKKGGPSVFLFPPKPKDTLMISRTPEVTCVVVDVSHEDPEVKFNWYVDGVEVHNAKTKPREEQYNSTYRVVSVLTVLHQDWLNGKEYKCKVSNKALPAPIEKTISKAKGQPREPQVYVLPPSREEMTKNQVSLLCLVKGFYPSDIAVEWESNGQPENRYMTWPPVLDSDGSFFLYSKLTVDKSRWQQGNVFSCSVMHEALHNHYTQKSLSLSPGK
[1]
  IL-2 signal transduction, HEK-IL-2-PD-1: < 0.1%
[2]
  IL-2 signal transduction, HEK-IL-2: < 0.1%
Human PD-1
  Kd: 150 nM
Mouse PD-1
  Kd: 120 nM
